Laboratory results as given in patent US20200407442A1 (WUXI BIOLOGICS IRELAND, published 2020).
Changes are numbered by the printed parent chain. One block for each binder: values may come before it.

Experiments:
[1] = biological target: T1, full-length human LAG-3 on cells (human, UniProt P18627 23-525); assay: cell-based or functional assay
T1 sequence: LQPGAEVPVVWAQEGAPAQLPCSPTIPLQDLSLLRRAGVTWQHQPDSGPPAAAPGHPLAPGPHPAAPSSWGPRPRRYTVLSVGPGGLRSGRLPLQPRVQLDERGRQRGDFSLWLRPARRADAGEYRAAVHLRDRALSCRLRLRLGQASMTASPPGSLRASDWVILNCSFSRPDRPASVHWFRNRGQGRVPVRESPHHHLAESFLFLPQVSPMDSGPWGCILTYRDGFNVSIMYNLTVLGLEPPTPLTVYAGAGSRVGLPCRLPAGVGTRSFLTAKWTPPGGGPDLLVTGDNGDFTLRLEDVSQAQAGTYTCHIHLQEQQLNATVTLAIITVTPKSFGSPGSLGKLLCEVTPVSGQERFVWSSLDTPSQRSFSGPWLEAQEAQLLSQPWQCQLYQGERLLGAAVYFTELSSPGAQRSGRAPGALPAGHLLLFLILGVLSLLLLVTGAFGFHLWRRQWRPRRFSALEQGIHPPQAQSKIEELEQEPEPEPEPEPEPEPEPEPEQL

mFc-tagged LAG-3 protein = biological target: T2, mFc-tagged LAG-3 protein (human, UniProt P18627 30-450); assay: ELISA competition: blocks mFc-tagged LAG-3 binding to coated Galectin-3
T2 construct: also called human LAG-3 ECD with mouse Fc tag
T2 sequence: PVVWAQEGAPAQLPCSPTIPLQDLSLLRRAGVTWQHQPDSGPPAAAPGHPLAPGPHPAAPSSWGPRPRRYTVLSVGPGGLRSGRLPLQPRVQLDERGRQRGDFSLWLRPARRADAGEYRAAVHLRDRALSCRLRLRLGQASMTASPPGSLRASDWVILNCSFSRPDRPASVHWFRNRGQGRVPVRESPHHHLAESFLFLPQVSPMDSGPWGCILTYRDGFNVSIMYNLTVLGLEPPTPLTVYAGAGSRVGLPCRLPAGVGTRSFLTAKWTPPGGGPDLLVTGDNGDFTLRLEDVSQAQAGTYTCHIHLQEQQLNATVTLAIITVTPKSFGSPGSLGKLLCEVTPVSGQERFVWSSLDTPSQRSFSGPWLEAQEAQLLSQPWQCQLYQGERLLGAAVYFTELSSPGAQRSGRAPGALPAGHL
Description: 96-well plates were coated with human LSECtin or Galectin-3 at 0.5 μg/mL overnight at 4° C., respectively. Antibodies were serially diluted in 1% BSA-PBS and mixed with mFc-tagged LAG-3 protein. After blocking and washing, the mixture was transferred to the plates and incubated at room temperature for 1 h. The plates were then washed and subsequently incubated with corresponding secondary antibody for 60 min. After washing, TMB substrate was added and the color reaction was stopped by 2M HCl. The absorbance at 450 nm was read using a microplate reader.

[2] = biological target: T3, human LAG-3-ECD.D12.mFc mutant L153A (human, UniProt P18627 37-252); assay: ELISA, antibody coated, LAG-3 D12.mFc mutant in supernatant, normalised to control mutants
T3 construct: Alanine scanning mutant; construct limits as for m26
T3 chain: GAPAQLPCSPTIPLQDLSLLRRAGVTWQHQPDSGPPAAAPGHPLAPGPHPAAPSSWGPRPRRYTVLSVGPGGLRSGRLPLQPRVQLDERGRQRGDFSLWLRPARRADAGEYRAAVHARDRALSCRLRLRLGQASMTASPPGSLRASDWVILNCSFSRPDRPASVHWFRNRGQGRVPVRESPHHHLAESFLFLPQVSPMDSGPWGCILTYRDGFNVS
Description: (§1) For ELISA binding assay, the antibody 1.53.3-uAb-IgG4k or 3.40.19-uAb-hIgG4L (2 μg/mL) was coated in plates. After interacting with the supernatant that contains quantified LAG-3 mutants or human LAG-3-ECD.D12.mFc protein, HRP conjugated anti-mFc antibody (1:5000; Bethyl, USA) was added as a detection antibody. Absorbance was normalized according to the average absorbance of control mutants. After setting an additional cutoff to the binding fold change (<0.75), the final determined epitope residues were identified.

[3] = biological target: T4, human LAG-3-ECD.D12.mFc mutant A59G (human, UniProt P18627 37-252); assay: as above
T4 construct: construct limits as for m26
T4 chain: T3 chain with A23G, A117L
Description: as §1

[4] = biological target: T5, human LAG-3-ECD.D12.mFc mutant L164A (human, UniProt P18627 37-252); assay: as above
T5 construct: Alanine scanning mutant; construct limits as for m26
T5 chain: T3 chain with A117L, L128A
Description: as §1

[5] = biological target: T6, human LAG-3-ECD.D12.mFc mutant D143A (human, UniProt P18627 37-252); assay: as above
T6 construct: Alanine scanning mutant; construct limits as for m26
T6 chain: T3 chain with D107A, A117L
Description: as §1

[6] = biological target: T7, human LAG-3-ECD.D12.mFc mutant L42A (human, UniProt P18627 37-252); assay: as above
T7 construct: Alanine scanning mutant; construct limits as for m26
T7 chain: T3 chain with L6A, A117L
Description: as §1

EC50, IL-2 luciferase reporter gene assay (Jurkat cells expressing human LAG-3 with Raji cells and SEE) [1]: 0.21 nM
EC50 (mFc-tagged LAG-3 protein): 0.56 nM
Fold Change [2]: 0.632
Fold Change [3]: 0.542
Fold Change [4]: 0.278
Fold Change [5]: 0.529
Fold Change [6]: 0.306
B1: 3.40.19-uAb-IgG4L (antibody, V domains shown)
VH: QLQLQESGPGLVKPSETLSLTCTVSGDSISSTSYYWGWIRQPPGKGLEWIGSFYYSGSTYYNPSLKSRVTISVDTSKNQFSLKLNSVTAADTAVYYCARMQLWSYDVDVWGQGTTVTVSS
VL: QSALTQPASVSGSPGQSITISCTGTSSDVGGYDYVAWYQQHPGKVPKLMIYDVSERPSGVSNRFSGSKSGNTASLTISGLQAEDEADYYCSSYTSTTTLVVFGGGTKLSVL
notes: Fully human antibody from OMT rats; IgG4 lambda by its name; also called 3.40.19-uAb-hIgG4L

EC50, IL-2 luciferase reporter gene assay (Jurkat cells expressing human LAG-3 with Raji cells and SEE) [1]: 1.07 nM
EC50 (mFc-tagged LAG-3 protein): 0.74 nM
Fold Change [2]: 0.749
Fold Change [3]: 0.718
Fold Change [4]: 0.586
Fold Change [5]: 0.671
Fold Change [6]: 0.624
B2: 1.53.3-uAb-IgG4k (antibody, V domains shown)
VH: QVQLQQWGAGLLKPSETLSLTCGVYGGSFSGYYWSWIRQPPGMGLEWIGEINHRGNTNYNPSLKSRVTISEDTSKNQFSLRLSSVTAADTAVYFCTRGEDYSDYDYYGDFWGQGTLVTVSS
VL: EIVLTQSPATLSLSQGERATLSCRASQSISSYLAWYQQKPGQAPRLLIYAASNRATGIPARFSGSGSGTDFTLTISSLEPEDFAIYYCQQRSNWPLTFGGGTKVEIK
notes: Fully human antibody from OMT rats; IgG4 kappa by its name
